Literature values as cited in patent publication US5608039A, “Single chain B3 antibody fusion proteins and their uses” (The United States of America as represented by the …, priority 1994, dated 1997).

Details: in vivo

Question: Which toxicity does the source give for PE here?
Answer: highly toxic compounds that typically bring about death through liver toxicity
